Results taken from paper PMC7851051.
Read-outs that look alike come from different tables or passages of the source.

How the values were obtained:
[1] = target: LLO118int single-chain TCR (scTCR), displayed on yeast (mouse); experiment: flow cytometry on cells
[2] = target: LLO56int single-chain TCR (scTCR), displayed on yeast (mouse); experiment: flow cytometry on cells; scTCR displayed on yeast stained with LLO_(190-201)/I-A^b tetramer; histograms (Figure 1C)
[3] = target: LLO118_(high) single-chain TCR (scTCR), displayed on yeast (mouse); experiment: as above
[4] = target: LLO118low single-chain TCR (scTCR), displayed on yeast (mouse); experiment: flow cytometry on cells
[5] = target: LLO56low single-chain TCR (scTCR), displayed on yeast (mouse); experiment: flow cytometry on cells
[6] = target: LLO118int single-chain TCR (scTCR), displayed on yeast (mouse); experiment: flow cytometry on cells; remark: listed apart in the source
[7] = target: LLO56int single-chain TCR (scTCR), displayed on yeast (mouse); experiment: flow cytometry on cells; tetramer decay on yeast-displayed scTCR: 6.5 µg/ml tetramer, 1.5 h, room temperature, washed, then anti-mouse MHC class II (M5/114.15.2) added and tetramer followed for 2-60 min; first round (Figure 2C); multivalent half-life
[8] = target: LLO118_(high) single-chain TCR (scTCR), displayed on yeast (mouse); experiment: as above
[9] = target: LLO56int single-chain TCR (scTCR), displayed on yeast (mouse); experiment: flow cytometry on cells; tetramer decay on yeast-displayed scTCR as above, second round with lower levels of MHC inhibiting-antibody (Figure 2D); multivalent half-life
[10] = target: LLO56int single-chain TCR (scTCR), displayed on yeast (mouse); experiment: flow cytometry on cells; tetramer titration on yeast-displayed scTCR: 1x10^6 induced cells, 0.152 nM to 12.16 nM tetramer, 1.5 h, room temperature; MFI normalised; KD = 50% maximum binding concentration, one site-specific fit; multivalent avidity; percent of cells bound (Figure 2B)
[11] = target: LLO118_(high) single-chain TCR (scTCR), displayed on yeast (mouse); experiment: as above

LLO_(190-201)/I-A^b tetramer (peptide-MHC)
other [1]: 6.7 min
log better tetramer binding than LLO56low [2]: 1.5 log
log better tetramer binding than LLO118int [3]: 1 log
log better tetramer binding than LLO118low [3]: 2.5 log
other [4]: 1.1%
other [5]: 0.75%
Kd [6]: 0.0448 µM
other [6]: 24.5%
t1/2 [7]: 1 m
t1/2 [8]: 165 m
t1/2 [9]: 3.5 min
Kd [10]: 0.0392 µM
percent of cells bound by tetramer [10]: 12.6%
Kd [11]: 0.00733 µM
percent of cells bound by tetramer [11]: 43.3%
